The labels stand for the following.
T1: human IL-12Rβ2-huFc-his (R&D system), biotinylated (human, UniProt Q99665 24-622, limits assumed, biotinylated)
T1 construct: bought; captured on Neutravidin in the ELISA; also called Bio-huIL-12Rβ2-huFc-His
T1 sequence (looked up): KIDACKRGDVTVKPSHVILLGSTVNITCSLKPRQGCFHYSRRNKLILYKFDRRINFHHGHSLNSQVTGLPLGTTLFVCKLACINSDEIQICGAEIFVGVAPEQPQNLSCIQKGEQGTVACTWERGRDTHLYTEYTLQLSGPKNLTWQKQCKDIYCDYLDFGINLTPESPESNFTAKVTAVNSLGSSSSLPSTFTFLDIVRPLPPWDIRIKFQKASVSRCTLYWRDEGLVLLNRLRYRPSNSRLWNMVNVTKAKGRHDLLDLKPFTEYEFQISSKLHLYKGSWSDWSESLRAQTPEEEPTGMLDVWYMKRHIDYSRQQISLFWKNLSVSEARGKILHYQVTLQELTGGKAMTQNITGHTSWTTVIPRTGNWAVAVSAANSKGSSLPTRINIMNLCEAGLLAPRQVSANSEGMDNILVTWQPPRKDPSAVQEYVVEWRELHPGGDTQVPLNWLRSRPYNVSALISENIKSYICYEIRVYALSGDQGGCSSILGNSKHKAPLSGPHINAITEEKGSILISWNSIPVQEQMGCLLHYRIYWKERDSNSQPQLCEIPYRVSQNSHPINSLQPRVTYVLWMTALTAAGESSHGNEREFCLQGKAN

T2: human IL-12Rβ2, Acro (BLI analyte) (human, UniProt Q99665 24-622, limits assumed)
T2 sequence (looked up): T1 sequence (looked up)

T3: human IL-12RB2 with C-terminal HA tag, transiently expressed on HEK-293T cells (human, UniProt Q99665 24-862)
T3 construct: whole, on cells; also called human IL-12Rβ2
T3 sequence (looked up): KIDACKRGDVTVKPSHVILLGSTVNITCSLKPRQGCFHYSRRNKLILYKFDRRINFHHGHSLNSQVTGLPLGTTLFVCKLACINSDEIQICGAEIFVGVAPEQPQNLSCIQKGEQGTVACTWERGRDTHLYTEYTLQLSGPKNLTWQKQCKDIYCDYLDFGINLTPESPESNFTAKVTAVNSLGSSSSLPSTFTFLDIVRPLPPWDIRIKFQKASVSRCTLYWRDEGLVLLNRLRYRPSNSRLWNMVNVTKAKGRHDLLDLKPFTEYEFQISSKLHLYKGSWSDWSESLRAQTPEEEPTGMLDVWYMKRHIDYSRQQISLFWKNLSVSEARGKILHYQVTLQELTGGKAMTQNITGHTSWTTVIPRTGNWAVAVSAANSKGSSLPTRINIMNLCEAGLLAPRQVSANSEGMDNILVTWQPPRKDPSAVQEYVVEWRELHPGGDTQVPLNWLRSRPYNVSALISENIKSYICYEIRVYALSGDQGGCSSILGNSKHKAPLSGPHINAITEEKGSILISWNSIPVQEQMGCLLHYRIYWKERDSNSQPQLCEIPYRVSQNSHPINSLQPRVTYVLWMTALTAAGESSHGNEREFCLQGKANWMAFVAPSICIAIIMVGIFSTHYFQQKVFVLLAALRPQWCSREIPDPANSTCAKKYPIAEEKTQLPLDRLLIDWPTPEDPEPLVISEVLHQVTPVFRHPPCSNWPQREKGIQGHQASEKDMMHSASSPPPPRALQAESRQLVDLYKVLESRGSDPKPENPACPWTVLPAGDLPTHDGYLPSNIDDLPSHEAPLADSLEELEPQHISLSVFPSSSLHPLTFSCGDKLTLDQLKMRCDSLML

T4: cyno IL-12RB2 with C-terminal HA tag, transiently expressed on HEK-293T cells (cyno, UniProt A0A2K5VNI7 24-860)
T4 construct: whole, on cells; also called cyno IL-12Rβ2
T4 sequence: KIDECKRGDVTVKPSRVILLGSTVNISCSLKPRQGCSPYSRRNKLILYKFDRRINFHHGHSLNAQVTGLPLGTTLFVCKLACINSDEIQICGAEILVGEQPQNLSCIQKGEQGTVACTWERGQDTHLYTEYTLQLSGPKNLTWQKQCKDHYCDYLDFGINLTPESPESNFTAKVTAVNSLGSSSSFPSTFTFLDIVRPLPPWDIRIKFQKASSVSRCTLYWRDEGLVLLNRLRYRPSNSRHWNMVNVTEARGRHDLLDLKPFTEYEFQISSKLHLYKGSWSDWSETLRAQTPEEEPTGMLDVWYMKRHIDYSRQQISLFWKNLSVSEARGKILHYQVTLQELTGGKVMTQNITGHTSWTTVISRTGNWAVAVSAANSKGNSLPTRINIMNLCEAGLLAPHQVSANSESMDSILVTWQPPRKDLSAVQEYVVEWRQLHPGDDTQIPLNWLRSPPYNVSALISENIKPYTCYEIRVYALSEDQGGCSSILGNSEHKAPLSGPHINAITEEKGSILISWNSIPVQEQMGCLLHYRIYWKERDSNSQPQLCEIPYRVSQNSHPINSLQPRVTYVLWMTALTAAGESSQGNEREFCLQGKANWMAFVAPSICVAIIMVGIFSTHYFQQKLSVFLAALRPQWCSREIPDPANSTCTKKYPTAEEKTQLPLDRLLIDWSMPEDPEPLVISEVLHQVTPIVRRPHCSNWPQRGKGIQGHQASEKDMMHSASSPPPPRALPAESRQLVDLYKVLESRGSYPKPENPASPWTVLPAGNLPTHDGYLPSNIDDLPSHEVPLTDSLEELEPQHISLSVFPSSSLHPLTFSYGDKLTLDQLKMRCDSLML

B1: DGL551 (bispecific antibody, V domains shown)
V domain 1: QVQLVESGGGLVQAGGSLRLSCAASGRTFGTYAMGWFRQAPGKERDFVARISNSGAFTHYADSVKGRFTISRDNAKNTVYLHMNSLENGDTAAYYCVATRGTNSAYYTRSTMYEYWGQGTQVTVEP
V domain 2: QVQLVESGGGLVQAGGSLRLSCAASGRTFSRYRMGWFRQAPGKEREFVAAITKSGATTYDADSVKGRFTISRDNAKNTLYLQMNSLKPEDTAVYYCAASYHSNWWPKNADEYAYWGQGTQVTVEP
notes: 195B1 x 185B2
B2: DGL426 (bispecific antibody, human IgG1, lambda)
heavy 1: not shown
heavy 2: QVQLVQSGAEVKKPGASVKVSCKASGYTFIGYYIHWVRQAPGQGLEWMGWINPHSGGTNYAQKFQGRVTMTRDTSISTAYMELSRLRSDDTAIYYCTKEANNWGYAFDIWGQGTMVTVSSASTKGPSVFPLAPSSKSTSGGTAALGCLVKDYFPEPVTVSWNSGALTSGVHTFPAVLQSSGLYSLSSVVTVPSSSLGTQTYICNVNHKPSNTKVDKKVEPKSCDKTHTCPPCPAPEAAGAPSVFLFPPKPKDTLMISRTPEVTCVVVDVSHEDPEVKFNWYVDGVEVHNAKTKPREEQYNSTYRVVSVLTVLHQDWLNGKEYKCKVSNKALPAPIEKTISKAKGQPREPQVCTLPPSRDELTKNQVSLSCAVKGFYPSDIAVEWESNGQPENNYKTTPPVLDSDGSFFLVSKLTVDKSRWQQGNVFSCSVMHEALHNRFTQKSLSLSPG
light: not shown
B3: VHH68B2 (VHH)
VHH: EVQLVESGGGLVQAGGSLKLSCAASGGTFSSYAMGWFRQAPGKEREFVAAIMRSGDTTVYVDSVKGRFTVSRDNAKNTVYLQMNSLKPEDAAVYYCAAGRPVTRTYYSTYTYPHDYDYWGQGTQVTVSS
B4: VHH93B2 (VHH)
VHH: QVQLVESGGGLVQPGGSLRLSCAASGFTFEPYDMSWFRQAPGKGPEWVSAIDKGGGAGATYYADSVKGRFTISRDNAKKTLYLQMKSLKPEDTAVYYCAITAGPYSDSTPRVAYRGEGTQVTVSS
B5: VHH194B2 (VHH)
VHH: QLQLVESGGGLVQAGGSLRLSCAASGLTFSGYTVGWFRQAPGKEREFVAAINWSSAYTYSEFVKGRFTISRDNAKNTVYLQMSSLKPEDTAVYYCAARRSRTSWYASTAEAYDYWGQGTQVTVSS
B6: VHH294B2 (VHH)
VHH: B5 VHH with R98Q
B7: VHH94B2 (VHH)
VHH: EVQLVESGGGLVQPGGSLRLSCAASGFTFSSYAMSWVRQAPGKGLEWVSAINSGGDSTSYADSVEGRFTISRDNAKNTLYLQMNSLKPDDTAVYYCAKWSDCSEYGCYDQTTTEGTQVTVSS
B8: VHH185B2 (VHH)
VHH: B1 V domain 2 with E124S, P125S
B9: VHH222B2 (VHH)
VHH: QVQLVESGGGLVQAGGSLRLSCAASGRIFSAYRMGWFRQAPGKEREFVAGITWRGQTTYYAASVKGRFTISKDNAKKTVYLQMNSLKPEETAVYYCAVETNGLGRWDRPSEYDYWGQGTQVTVSS
B10: VHH85B2 (VHH)
VHH: QVQLVESGGGLVQAGGSLRVSCAASGRIPSLNTMAWYRQAPGKQREFVAFITNGGTTNYVDSVEGRFSISRDNTKNAVDLQMNSLKPEDTGVYYCNVQISQYPYNYWGQGTQVTVSS
B11: VHH190B2 (VHH)
VHH: QVQLQESGPGLVKPSQTLSLTCTVSGGSITTNYYYWSWIRQPPGKGLEWMGAIAYSGSTYYSPSLKSRTSISRDTSKNQFTLQLSSVTPEDTAVYYCASGINFYSNYPTLNEYDYWGQGTQVTVSS
B12: VHH230B2 (VHH)
VHH: QVQLVESGGGLVQAGGSLRLSCAASGRTFSSYAMGWFRQAPGKEREFVSAISWSGLSTYYVESVQGRFTISRDNAKNTVYLQMNSLKPEDTAVYYCAASRIYTNYVARSYEYDDWGQGTQVTVSS
B13: VHH356B2 (VHH)
VHH: QLQLVESGGGLVQPGGSLRLSCAASGSIFSINAMGWYRQAPGKQRELVAAITSGGSTAYADSVKGRFTISRDNAKNTVYLQMNSLKPEDTAVYYCNADRDPITSWYVRGDYWGQGTQVTVSS
B14: VHH219B2 (VHH)
VHH: QVQLEESGGGLVQAGGSLRLSCAASGRTFSSYVVGWFRQAPGKEREFVGRISWSGARTYYADSVEGRFTISRDNAKNTVYLQMNSLKPEDTAVYYCAADLKWEVLLSEHYEYWGQGTQVTVSS

Positions count from the first letter of the chain named.

As a reminder, the EC50 is the concentration needed to bring the measured effect to its halfway point. Read a low EC50 as a more potent agent. By Kd is commonly meant the equilibrium constant for the complex coming apart. Higher therefore signals lower affinity.

In the first assay the target is human IL-12 receptor (IL-12Rβ1 and IL-12Rβ2) on HEK-Blue IL-12 cells (human, UniProt P42701 24-662; Q99665 24-862). The assay can be described thus: cell-based or functional assay.
With B1, the EC50 was 4.7e-09 M (implied) and the “Max Absorbance” value was 0.59.
As to B2, the EC50 is 2.7e-10 M (implied) and the “Max Absorbance” value stood at 1.24.

The target in the next assay is T1, human IL-12Rβ2-huFc-his (R&D system), …. The assay can be described thus: ELISA, periplasmic extract. For orientation: An ELISA detects its analyte on a solid surface through an enzyme-linked reagent.
In turn, B3 returned an OD450 nm of 2.13.
On to B4, for which the OD450 nm was 0.151.
Take B5: the OD450 nm turned out to be 0.602.
B6: the OD450 nm came to 2.2.
B7: the OD450 nm amounted to 0.19.
With B8, the OD450 nm came out at 2.1.
In the case of B9, the OD450 nm worked out at 0.961.
With B10, the OD450 nm was found to be 2.99.
The same measure, in the same setting: for B11 the value was 0.174.
For the molecule B12, the OD450 nm amounted to 0.308.
B13 showed an OD450 nm of 2.86.
On the same count and under the same terms, for B14 the value was 0.237.

A further assay has as its target human IL-12Rβ1, Acro (BLI analyte) (human, UniProt P42701 24-545). The assay can be described thus: BLI (Octet), antibody on AHC tip.
B1 displayed a Kd of 10.6 nM.
Consider B2, for which the Kd turned out to be 15.9 nM.

In a further assay the target is T2, human IL-12Rβ2, Acro (BLI analyte). Briefly: BLI (Octet), antibody on AHC tip. On the technique in general: BLI is a label-free optical method that tracks binding on a fibre tip over time.
Molecule B1 registered a Kd of 8.29 nM.
As for B2, binding was put at a Kd of 0.321 nM.

In the next assay the target is T3, human IL-12RB2 with C-terminal HA tag, …. The assay can be described thus: FACS, periplasmic extract, HEK-293T. (In general: Flow cytometry measures light scatter and fluorescence of single cells or particles in a stream.)
In turn, B3 had an FOB of 2.25 fold.
B5 gave an FOB of 1.68 fold.
B6 gave an FOB of 1.98 fold.
B7: the FOB is 3.19 fold.
B8 registered an FOB of 2.71 fold.
In turn, B9 returned an FOB of 3.17 fold.
In the case of B10, the FOB turned out to be 1.64 fold.
For the molecule B11, the FOB came to 2.25 fold.
Take B12: the FOB amounted to 2.05 fold.
In turn, B13 had an FOB of 1.43 fold.

A further assay concerns the target T4, cyno IL-12RB2 with C-terminal HA tag, …. The assay can be described thus: FACS, periplasmic extract, HEK-293T.
For B3, the FOB was 3.47 fold.
Same read-out and setting: with B4 the figure was 1.35 fold.
B5: the FOB came out at 3.06 fold.
On to B6, for which the FOB amounted to 3.19 fold.
On to B7, for which the FOB is 3.84 fold.
Turning to B8, the FOB is 4.18 fold.
On the same count and under the same terms, for B9 the value was 1.28 fold.
For B10, the FOB was determined as 2.31 fold.
B11 gave an FOB of 3.78 fold.
B14 displayed an FOB of 0.99 fold.

These data come from patent US20250019450A1 (DIAGONAL THERAPEUTICS, published 2025).
